Assay results from patent publication US10434147B2, “Treatment type 2 diabetes mellitus patients” (Sanofi-Aventis Deutschland GmbH, priority 2015, dated 2019).
Marks after values point to notes of the source that are not given here.

Key:
Format in all cases: in vivo, human
[1] = test system: Patients with Type 2 Diabetes Insufficiently Controlled with Insulin Glargine with or without Metformin; test: HbA1c, randomized open-label active-controlled 3-arm 26-week study (GetGoal-Duo2)
Text: (§1) FIG. 6—Graphical study design. ^1 Insulin glargine should be injected subcutaneously once daily at dinner or breakfast time (according to patient's/investigators' preference). […] Meal used for insulin glulisine dosing should remain the same throughout the 26-week treatment period. ^4 Injection of insulin glulisine prior to breakfast, lunch and dinner.
(§2) Co-primary endpoints at 26 weeks were (1) non-inferiority (95% CI upper bound <0.4%) in HbA1c reduction with LIXI vs GLU-1 and (2) for LIXI vs GLU-3, either non-inferiority in HbA1c reduction (2a) OR superiority (one-sided α≤0.025) in body weight change (2b). FPG, PPG, IG dose, composite outcomes, AEs, and hypoglycemia were assessed.

[2] = test system: Patients with Type 2 Diabetes Insufficiently Controlled with Insulin Glargine with or without Metformin; test: Body weight, 26-week study
Text: as §1, §2

[3] = test system: Patients with Type 2 Diabetes Insufficiently Controlled with Insulin Glargine with or without Metformin; test: 2-h PPG post test meal, 26-week study; conditions: subset of mITT treated before breakfast
Protocol: as §2

[4] = test system: Patients with Type 2 Diabetes Insufficiently Controlled with Insulin Glargine with or without Metformin; test: Treatment-emergent adverse events, 26-week study
Text: as §1, §2

[5] = Baseline (before IMP), mITT population
[6] = Week 26 (LOCF), mITT population
[7] = Week 26 (LOCF), mITT, Example 2 table
[8] = Safety population, PT ≥ 3% table

Question: “Insulin Glulisine QD: insulin glulisine once daily, added to insulin glargine ± metformin (comparator arm)” was tested. Which “HbA1c change to Week 26, LS Mean difference (SE) of Lixisenatide vs. the labelled insulin glulisine arm” value ([1]; ANCOVA, mITT population) did it give?
Answer: The value was −0.05 (0.059) %.

Question: What about the “HbA1c, Change from baseline to Week 26 (LOCF), LS Mean (SE)” value ([1]; ANCOVA, mITT population) of the same substance?
Answer: The value was −0.58 (0.054) %.

Question: What about the “HbA1c, BL (end run-in) mean ± SD” value ([1]; BL (end run-in), mITT) of the same substance?
Answer: The value was 7.7 ± 0.6%.

Question: What about the “HbA1c, Baseline, Mean (SD)” value [1, 5] of the same substance?
Answer: The value was 7.72 (0.58) %.

Question: What about the “HbA1c, Baseline, Median” value [1, 5] of the same substance?
Answer: The value was 7.70%.

Question: What about the “HbA1c, Screening (start run-in) mean ± SD” value ([1]; Screening (start run-in), mITT) of the same substance?
Answer: The value was 8.5 ± 0.7%.

Question: What about the “HbA1c, Week 26 (LOCF), Mean (SD)” value [1, 6] of the same substance?
Answer: The value was 7.21 (0.79) %.

Question: And the “HbA1c, Week 26 (LOCF), Median” value [1, 6]?
Answer: The value was 7.10%.

Question: And the “HbA1c, Week 26 (LOCF) mean ± SD” value [1, 7]?
Answer: The value was 7.2 ± 0.8%.

Question: What about the “HbA1c, LS mean treatment difference (lixisenatide vs the labelled arm), co-primary endpoint” value ([1]; Week 26, mITT, Example 2 table) of the same substance?
Answer: The value was −0.1^† %.

Question: And the “HbA1c, LS mean ± SE change from BL” value ([1]; Week 26, mITT, Example 2 table)?
Answer: The value was −0.6 ± 0.1%.

Question: What about the “HbA1c, Change from baseline to Week 26 (LOCF), Mean (SD)” value ([1]; mITT population) of the same substance?
Answer: Its value is −0.51 (0.80) %.

Question: What about the “HbA1c, Change from baseline to Week 26 (LOCF), Median” value ([1]; mITT population) of the same substance?
Answer: The value was −0.50%.

Question: What about the “Body weight, Change from baseline to Week 26 (LOCF), LS Mean (SE)” value ([2]; ANCOVA, mITT population) of the same substance?
Answer: Its value is 1.03 (0.276) kg.

Question: What about the “Body weight change to Week 26, LS Mean difference (SE) of Lixisenatide vs. the labelled insulin glulisine arm” value ([2]; ANCOVA, mITT population, p <.0001) of the same substance?
Answer: The value was −1.66 (0.305) kg.

Question: And the “Body Weight, BL mean ± SD” value ([2]; BL, mITT, Example 2 table)?
Answer: Its value is 88.4 ± 15.9 kg.

Question: What about the “Body weight, Baseline, Mean (SD)” value [2, 5] of the same substance?
Answer: Its value is 88.37 (15.88) kg.

Question: And the “Body weight, Baseline, Median” value [2, 5]?
Answer: Its value is 88.00 kg.

Question: And the “Body weight, Week 26 (LOCF), Mean (SD)” value [2, 6]?
Answer: The value was 89.31 (16.27) kg.

Question: What about the “Body weight, Week 26 (LOCF), Median” value [2, 6] of the same substance?
Answer: The value was 88.40 kg.

Question: And the “Body Weight, Week 26 (LOCF) mean ± SD” value [2, 7]?
Answer: The value was 89.3 ± 16.3 kg.

Question: And the “Body Weight, LS mean ± SE change from BL” value ([2]; Week 26, mITT, Example 2 table)?
Answer: The value was 1.0 ± 0.3 kg.

Question: What about the “Body Weight, LS mean treatment difference (lixisenatide vs the labelled arm)” value ([2]; Week 26, mITT, p < 0.0001, Example 2 table) of the same substance?
Answer: Its value is -1.7 kg.

Question: What about the “Body weight, Change from baseline to Week 26 (LOCF), Mean (SD)” value ([2]; mITT population) of the same substance?
Answer: Its value is 0.94 (2.50) kg.

Question: And the “Body weight, Change from baseline to Week 26 (LOCF), Median” value ([2]; mITT population)?
Answer: The value was 0.90 kg.

Question: And the “2-h PPG post test meal, BL (end run-in) mean ± SD” value ([3]; BL)?
Answer: Its value is 249 ± 63 mg/dL.

Question: What about the “2-h PPG post test meal, Week 26 (LOCF) mean ± SD” value ([3]; Week 26 (LOCF)) of the same substance?
Answer: The value was 220 ± 60 mg/dL.

Question: What about the “2-h PPG post test meal, LS mean treatment difference (lixisenatide vs the labelled arm)” value ([3]; Week 26) of the same substance?
Answer: Its value is -37 mg/dL.

Question: What about the “2-h PPG post test meal, LS mean ± SE change from BL” value ([3]; Week 26) of the same substance?
Answer: The value was -28 ± 11 mg/dL.

Question: And the “Patients with any TEAE leading to death” value ([4]; Safety population)?
Answer: The value was 0 n (%).

Question: What about the “Patients with treatment emergent SAE: Accidental overdose” value ([4]; Safety population) of the same substance?
Answer: Its value is 2 (0.7%) n (%).

Question: What about the “Patients with TEAE: Accidental overdose” value [4, 8] of the same substance?
Answer: The value was 13 (4.3%) n (%).

Question: What about the “Patients with TEAE: Headache” value [4, 8] of the same substance?
Answer: Its value is 8 (2.7%) n (%).

Question: And the “Patients with TEAE: Hypoglycaemia” value [4, 8]?
Answer: The value was 140 (46.5%) n (%).

Question: And the “Patients with TEAE: Infections and infestations (SOC)” value [4, 8]?
Answer: Its value is 70 (23.3%) n (%).

Question: What about the “Patients with TEAE: Influenza” value [4, 8] of the same substance?
Answer: Its value is 8 (2.7%) n (%).

Question: What about the “Patients with TEAE: Injury, poisoning and procedural complications (SOC)” value [4, 8] of the same substance?
Answer: Its value is 20 (6.6%) n (%).

Question: What about the “Patients with TEAE: Investigations (SOC)” value [4, 8] of the same substance?
Answer: Its value is 76 (25.2%) n (%).

Question: What about the “Patients with TEAE: Metabolism and nutrition disorders (SOC)” value [4, 8] of the same substance?
Answer: Its value is 143 (47.5%) n (%).

Question: What about the “Adjudicated by PSAC: Acute on chronic pancreatitis” value ([4]; in vivo) of the same substance?
Answer: The value was 0 n (%).

Question: What about the “Adjudicated by PSAC: Acute pancreatitis” value ([4]; in vivo) of the same substance?
Answer: Its value is 0 n (%).

Question: And the “Adjudicated by PSAC: Chronic pancreatitis” value ([4]; in vivo)?
Answer: Its value is 0 n (%).

Question: What about the “Adjudicated by PSAC: Unknown pancreatitis” value ([4]; in vivo) of the same substance?
Answer: Its value is 0 n (%).

Question: What about the “Gastrointestinal AEs: Diarrhea” value ([4]; in vivo) of the same substance?
Answer: The value was 10 (3) n (%).

Question: What about the “Gastrointestinal AEs: Nausea” value ([4]; in vivo) of the same substance?
Answer: The value was 5 (2) n (%).

Question: What about the “Gastrointestinal AEs: Vomiting” value ([4]; in vivo) of the same substance?
Answer: Its value is 5 (2) n (%).

Question: What about the “Patients with TEAE on the specific adverse event form for increased calcitonin (>=20 ng/L): Any” value ([4]; in vivo) of the same substance?
Answer: Its value is 0 n (%).

Question: What about the “Patients with TEAE on the specific adverse event form for increased calcitonin (>=20 ng/L): Blood calcitonin increased” value ([4]; in vivo) of the same substance?
Answer: The value was 0 n (%).

Question: And the “Patients with TEAE: Any class” value ([4]; in vivo)?
Answer: Its value is 222 (73.8%) n (%).

Question: What about the “Patients with TEAE: Blood glucose decreased” value ([4]; in vivo) of the same substance?
Answer: The value was 67 (22.3%) n (%).

Question: And the “Patients with TEAE: Diarrhoea” value ([4]; in vivo)?
Answer: Its value is 10 (3.3%) n (%).

Question: And the “Patients with TEAE: Gastrointestinal disorders (SOC)” value ([4]; in vivo)?
Answer: Its value is 26 (8.6%) n (%).

Question: And the “Patients with TEAE: Nasopharyngitis” value ([4]; in vivo)?
Answer: The value was 21 (7.0%) n (%).

Question: And the “Patients with TEAE: Nausea” value ([4]; in vivo)?
Answer: Its value is 5 (1.7%) n (%).

Question: And the “Patients with TEAE: Nervous system disorders (SOC)” value ([4]; in vivo)?
Answer: The value was 22 (7.3%) n (%).

Question: And the “Patients with TEAE: Upper respiratory tract infection” value ([4]; in vivo)?
Answer: The value was 5 (1.7%) n (%).

Question: And the “Patients with TEAE: Vomiting” value ([4]; in vivo)?
Answer: Its value is 5 (1.7%) n (%).

Question: And the “Patients with any TEAE” value ([4]; in vivo)?
Answer: The value was 222 (73.8%) n (%).

Question: And the “Patients with any TEAE leading to permanent treatment discontinuation” value ([4]; in vivo)?
Answer: Its value is 2 (0.7%) n (%).

Question: And the “Patients with any treatment emergent SAE” value ([4]; in vivo)?
Answer: Its value is 11 (3.7%) n (%).

Question: And the “Patients with events adjudicated as allergic reaction by ARAC: All, Any category, Any event” value ([4]; in vivo)?
Answer: The value was 0 n (%).

Question: And the “Patients with events adjudicated as allergic reaction by ARAC: OTHER ALLERGIC REACTION, Rhinitis allergic” value ([4]; in vivo)?
Answer: The value was 0 n (%).

Question: What about the “Patients with events adjudicated as allergic reaction by ARAC: Possibly Related to IMP, Any event” value ([4]; in vivo) of the same substance?
Answer: The value was 0 n (%).

Question: What about the “Patients with events adjudicated as allergic reaction by ARAC: URTICARIA (HIVES), Urticaria” value ([4]; in vivo) of the same substance?
Answer: The value was 0 n (%).

Question: What about the “Patients with treatment emergent SAE: Abdominal pain” value ([4]; in vivo) of the same substance?
Answer: Its value is 0 n (%).

Question: What about the “Patients with treatment emergent SAE: Angina pectoris” value ([4]; in vivo) of the same substance?
Answer: The value was 0 n (%).

Question: And the “Patients with treatment emergent SAE: Angina unstable” value ([4]; in vivo)?
Answer: Its value is 1 (0.3%) n (%).

Question: What about the “Patients with treatment emergent SAE: Ankle fracture” value ([4]; in vivo) of the same substance?
Answer: The value was 1 (0.3%) n (%).

Question: And the “Patients with treatment emergent SAE: Any class” value ([4]; in vivo)?
Answer: The value was 11 (3.7%) n (%).

Question: What about the “Patients with treatment emergent SAE: Atrial fibrillation” value ([4]; in vivo) of the same substance?
Answer: The value was 1 (0.3%) n (%).

Question: And the “Patients with treatment emergent SAE: Atrioventricular block complete” value ([4]; in vivo)?
Answer: Its value is 0 n (%).

Question: What about the “Patients with treatment emergent SAE: Basal cell carcinoma” value ([4]; in vivo) of the same substance?
Answer: The value was 0 n (%).

Question: And the “Patients with treatment emergent SAE: Cardiac disorders (SOC)” value ([4]; in vivo)?
Answer: The value was 3 (1.0%) n (%).

Question: And the “Patients with treatment emergent SAE: Cardiac failure chronic” value ([4]; in vivo)?
Answer: Its value is 0 n (%).

Question: And the “Patients with treatment emergent SAE: Cardiac failure congestive” value ([4]; in vivo)?
Answer: The value was 0 n (%).

Question: And the “Patients with treatment emergent SAE: Cellulitis” value ([4]; in vivo)?
Answer: The value was 1 (0.3%) n (%).

Question: What about the “Patients with treatment emergent SAE: Cerebrovascular accident” value ([4]; in vivo) of the same substance?
Answer: The value was 0 n (%).
